The source of these data is article PMC6155162, “Identification of mesothelioma-specific sialylated epitope recognized with monoclonal antibody SKM9-2 in a mucin-like membrane protein HEG1” (Scientific Reports, 2018).

The test system of the assay is SKM9-2. Put plainly: Western blotting using SKM9-2 of HEG1 truncated mutants and epitope-fused GPI-anchor proteins. It counts as binding. Conditions: cell lysates of transfected HEK293T, SDS-PAGE under reducing conditions, 1 µg/mL SKM9-2. The source says: Figure 1 SKM9-2 binding to truncated mutants of HEG1. Schematics of full-length HEG1 (Full) and the truncated mutants are indicated on the left side and the results of western blotting using SKM9-2 are shown on the right side. Truncated amino acid position, which is based on a full-length variant of HEG1 containing exon 6, is shown as a number in the schematic of domain structure. The region of the SKM9-2 epitope is shown as a red square. […] SLURP GPI-anchor protein[18] was used as a fused GPI-anchor protein (violet square). The terminal sequences of the HEG1 peptide are shown in the western blot lane. The samples were resolved by 6% SDS-PAGE (a and b) or 4–15% SDS-PAGE (c) under reducing conditions and were detected by western blotting using SKM9-2. Cyt, cytoplasmic domain; EGFs, EGF related domains; Ser/Thr, serine/threonine rich region; SLURP, secreted lymphocyte antigen-6/urokinase-type plasminogen activator receptor-related peptide; SP, signal peptide; TM, transmembrane domain. Full-length blots are presented in Supplementary Fig. S7.
Figure 2 Epitope mapping of SKM9-2. Schematic of epitope peptides (left side) and western blots resolved by 4–15% SDS-PAGE (right side) are shown. The HEG1 peptide sequences are indicated in the western blot lane. Each epitope peptide was fused with a signal peptide (dashed line square) and a SLURP GPI-anchor protein (violet square). Full-length blots are presented in Supplementary Fig. S8.
Figure 3 Alanine scanning of SKM9-2 epitope. […] Cell lysates of transfected HEK293T (upper panel) or transfected ACC-MESO1 (lower panel) were resolved by 4–15% SDS-PAGE and analyzed by western blotting using SKM9-2. (b) S897A mutant of FLAG-tagged HEG1 in HEK293T was resolved by 4–15% SDS-PAGE and analyzed by western blotting using SKM9-2 (upper panel) or anti-FLAG mAb (lower panel). Native HEG1 in ACC-MESO4 and FLAG-tagged HEG1 without mutation in HEK293T were used as controls. Full-length blots are presented in Supplementary Fig. S9.
Sequences of tested HEG1 are shown in Supplementary Dataset. Full-length HEG1 cDNA was synthesized from total RNA purified with TRIzol reagent (Thermo Fisher Scientific) from ACC-MESO-4, using an oligo dT primer and SuperScript II RNase H reverse transcriptase (Thermo Fisher Scientific). cDNA encoding the HEG1 open reading frame was amplified by PCR using PrimeSTAR HS DNA Polymerase (Takara Bio Inc., Shiga, Japan). The HEG1 cDNA was cloned and inserted into the pcDNA3.1(−) mammalian expression vector (Thermo Fisher Scientific). For analyses of N-terminal truncation, we inserted mutants into pFLAG-CMV1 (Sigma-Aldrich Japan K.K., Tokyo, Japan). For analyses of C-terminal deletion lacking the transmembrane domain, we used mutants that were fused with a GPI-anchor protein, SLURP1-gpi[18], in pcDNA3.1(+) (Thermo Fisher Scientific) (Supplementary Dataset). Alanine substituted mutants were prepared using site directed mutagenesis. To produce a soluble epitope peptide, a modified HEG1 signal peptide and a C-terminal tag containing the FLAG tag plus a polyhistidine sequence were used in the mammalian expression vector pEF-BOS[39] (Supplementary Dataset). The plasmid constructs were transfected with Lipofectamine 3000 (Thermo Fisher Scientific). The HEG1 peptide-expressing 293 H clone was obtained by selection with geneticin (Thermo Fisher Scientific).
Monolayer cells were solubilized with 20 mM Tris buffer (pH 8.0) containing 1% SDS, 1 mM phenylmethylsulfonyl fluoride, 125 mU/mL Benzonase Nuclease (Merck Millipore Co., Tokyo, Japan) (25 µL/cm^2 culture surface area). The lysate (10 µL/lane) was resolved by SDS-PAGE under reducing conditions using 6% polyacrylamide gels or 4–15% precast gels (Bio-Rad Laboratories Inc., Hercules, CA, USA). […]

B1: 1 kb: FLAG-tagged N-terminal deletion mutant hHEG1 (1086-1481) (protein)
chain: MSALLILALVGAAVADYKDDDDKLAAANSSIDLVNSCAVNPCLHNGECVADNTSRGYHCRCPPSWQGDDCSVDVNECLSNPCPSTAMCNNTQGSFICKCPVGYQLEKGICNLVRTFVTEFKLKRTFLNTTVEKHSDLQEVENEITKTLNMCFSALPSYIRSTVHASRESNAVVISLQTTFSLASNVTLFDLADRMQKCVNSCKSSAEVCQLLGSQRRIFRAGSLCKRKSPECDKDTSICTDLDGVALCQCKSGYFQFNKMDHSCRACEDGYRLENETCMSCPFGLGGLNCGNPYQLITVVIAAAGGGLLLILGIALIVTCCRKNKNDISKLIFKSGDFQMSPYAEYPKNPRSQEWGREAIEMHENGSTKNLLQMTDVYYSPTSVRNPELERNGLYPAYTGLPGSRHSCIFPGQYNPSFISDESRRRDYF
In the case of B1, the “recognition by SKM9-2 upon western blot analysis” value is “not detected”.
